T1: biotinylated human BCMA-Fc, Avitag recombinant protein (ACRO Biosystems, #BC7-H82F0) (human, UniProt Q02223 1-54, biotinylated)
T1 construct: extracellular domain; Bought protein; also called human BCMA protein; recombinant human BCMA-ECD-Fc; not shown: Fc of the bought fusion protein; Avitag
T1 sequence (looked up): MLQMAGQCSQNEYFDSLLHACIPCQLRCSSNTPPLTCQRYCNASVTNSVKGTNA

T2: human BCMA (human, UniProt Q02223 1-184)
T2 construct: whole, on cells; the cell line is named under assay; also called TNFRSF17; CD269
T2 sequence (looked up): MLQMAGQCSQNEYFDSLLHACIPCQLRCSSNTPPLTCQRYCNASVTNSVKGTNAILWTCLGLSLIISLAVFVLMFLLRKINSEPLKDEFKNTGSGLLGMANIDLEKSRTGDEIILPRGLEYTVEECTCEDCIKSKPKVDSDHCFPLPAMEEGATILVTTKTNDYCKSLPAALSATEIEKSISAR


What was measured:
[1] = biological target: T1, biotinylated human BCMA-Fc, Avitag …; assay: BLI, dissociation rate relative to the original molecule PR001046 VH
human BCMA = biological target: T2, human BCMA; assay: flow cytometry, NCI-H929 cells, Flag-tagged VH single domain, anti-tag secondary antibody
[2] = biological target: T1, biotinylated human BCMA-Fc, Avitag …; assay: BLI (Octet Red96e), biotinylated BCMA-Fc on SA sensor, VH supernatant, 100 nM, single concentration
[3] = biological target: T3, human CTLA4 on cells (CHO-K1/hCTLA4; HEK293/hCTLA4; 293F-hCTLA4) (human, UniProt P16410 36-223); assay: FACS, CHO-K1/hCTLA4 cells (Test 2)
T3 construct: whole, on cells
T3 sequence (P16410 36-223): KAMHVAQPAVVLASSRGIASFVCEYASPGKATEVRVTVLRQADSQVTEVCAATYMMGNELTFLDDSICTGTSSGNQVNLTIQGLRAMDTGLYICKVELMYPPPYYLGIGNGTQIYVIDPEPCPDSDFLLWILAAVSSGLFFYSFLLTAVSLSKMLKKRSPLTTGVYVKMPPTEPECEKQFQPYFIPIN

[4] = biological target: T4, human PD-L1 on cells (CHO-K1/hPDL1; MDA-MB-231) (human, UniProt Q9NZQ7 19-290); assay: FACS, CHO-K1/hPDL1 cells (Experiment 2)
T4 construct: whole, on cells
T4 sequence (Q9NZQ7 19-290): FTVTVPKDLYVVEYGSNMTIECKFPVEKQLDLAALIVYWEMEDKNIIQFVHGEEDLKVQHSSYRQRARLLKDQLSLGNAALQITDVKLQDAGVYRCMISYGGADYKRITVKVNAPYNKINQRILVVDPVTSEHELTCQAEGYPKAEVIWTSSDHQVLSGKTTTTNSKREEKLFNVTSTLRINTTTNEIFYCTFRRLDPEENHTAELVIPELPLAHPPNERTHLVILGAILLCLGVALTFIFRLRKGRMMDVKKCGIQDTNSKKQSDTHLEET

[5] = biological target: T3, human CTLA4 on cells (CHO-K1/hCTLA4; …); assay: competition FACS: biotinylated B7-1-Fc to CHO-K1/hCTLA4 cells (Test 2)
[6] = biological target: T4, human PD-L1 on cells (CHO-K1/hPDL1; …); assay: competition FACS: biotinylated PD-1 to CHO-K1/hPDL1 cells (Experiment 2)

Binder | Kdis fold [1] | Maximum MFI (human BCMA) | Response [2] | koff [2] [s⁻¹] | EC50 (human BCMA) [nM] | EC50 [3] [nM] | Maximum MFI [3] [MFI] | EC50 [4] [nM] | Maximum MFI [4] [MFI] | IC50 [5] [nM] | Maximum inhibition rate (%) [5] [%] | IC50 [6] [nM] | Maximum inhibition rate (%) [6] [%]
PR001046 VH single-domain molecule (original molecule) (VHH, not the HCAb form; not shown: Flag and His tags) VHH: EVQLVETGGGLIQPGGSLRLSCAASGFTVSDNYMTWVRQAPGKGLEWVSVIFSGGNTYYADSVKGRFTISRDNAKNTLYLQMNSLRAEDTALYYCARRNYDDTRGTDVFDIWGQGTMVTVSS | 1 | 764 | 0.261 | 0.000696 |  |  |  |  |  |  |  |  | 
PR004560, PR001046 VH-derived single-domain variant 1046-R2-10F1 (VHH, Tested as VH single domain with Flag and His tags; not shown: Flag and His tags) VHH: EVQLVETGGGLIQPGGSLRLSCAASGFTVSDAYMTWVRQAPGKGLEWVSVIFSGGNTYVSDSVKGRFTISRDNAKNTLYLQMNSLRAEDTALYYCARRNYDQTRGTDVFDIWGQGTMVTVSS | 0.43 | 1300 | 0.573 | 0.000301 | 3.75 |  |  |  |  |  |  |  | 
PR004566, PR001046 VH-derived single-domain variant 1046-R2-4G10 (VHH, Tested as VH single domain with Flag and His tags; not shown: Flag and His tags) VHH: EVQLVETGGGLIQPGGSLRLSCAASGFTVSDSYMTWVRQAPGKGLEWVSVIFSGGRTYYSDSVKGRFTISRDNAKNTLYLQMNSLRAEDTALYYCARRNYDDTRGTDVFDIWGQGTMVTVSS | 0.41 | 1400 | 0.424 | 0.000286 | 3.17 |  |  |  |  |  |  |  | 
PR004561, PR001046 VH-derived single-domain variant 1046-R2-10H1 (VHH, Tested as VH single domain with Flag and His tags; not shown: Flag and His tags) VHH: EVQLVETGGGLIQPGGSLRLSCAASGFTVSDSYMTWVRQAPGKGLEWVSVIFSGGNTYYADSVKGRFTISRDNAKNTLYLQMNSLRAEDTALYYCARRNYDQTLGTDVFDIWGQGTMVTVSS | 0.43 | 1240 | 0.269 | 0.0003 | 4.38 |  |  |  |  |  |  |  | 
PR004569, PR001046 VH-derived single-domain variant 1046-R2-5H2 (VHH, Tested as VH single domain with Flag and His tags; not shown: Flag and His tags) VHH: EVQLVETGGGLIQPGGSLRLSCAASGFTVSDSYMTWVRQAPGKGLEWVSVIFSGGRTYYSDSVKGRFTISRDNAKNTLYLQMNSLRAEDTALYYCARRNYDQTRGTDVFDIWGQGTMVTVSS | 0.36 | 1420 | 0.73 | 0.000254 | 5.87 |  |  |  |  |  |  |  | 
PR004563, PR001046 VH-derived single-domain variant 1046-R2-1A1 (VHH, Tested as VH single domain with Flag and His tags; not shown: Flag and His tags) VHH: EVQLVETGGGLIQPGGSLRLSCAASGFTVYDNYMTWVRQAPGKGLEWVSVIFSGGKTYVADSVKGRFTISRDNAKNTLYLQMNSLRAEDTALYYCARRNYDQTRGTDVFDIWGQGTMVTVSS | 0.37 | 1260 | 0.493 | 0.000259 | 7.96 |  |  |  |  |  |  |  | 
PR004559, PR001046 VH-derived single-domain variant 1046-R1-12G7 (VHH, Tested as VH single domain with Flag and His tags; also called PR001046-R1-12G7; not shown: Flag and His tags) VHH: EVQLVETGGGLIQPGGSLRLSCAASGFTVSDNYMTWVRQAPGKGLEWVSVIFSGGKTYYADSVKGRFTISRDNAKNTLYLQMNSLRAEDTALYYCARRNYDDTRGTDVFDIWGQGTMVTVSS | 0.54 | 1190 | 0.261 | 0.000379 | 22.4 |  |  |  |  |  |  |  | 
PR004574, PR001046 VH-derived single-domain variant 1046-R2-9E5 (VHH, Tested as VH single domain with Flag and His tags; not shown: Flag and His tags) VHH: EVQLVETGGGLIQPGGSLRLSCAASGFTVSDAYMTWVRQAPGKGLEWVSVIFSGGRTYYSDSVKGRFTISRDNAKNTLYLQMNSLRAEDTALYYCARRNYDQTRGTDVFDIWGQGTMVTVSS | 0.45 | 1300 | 0.29 | 0.000314 | 2.9 |  |  |  |  |  |  |  | 
PR001578 (bispecific antibody, human IgG1, kappa, PD-L1×CTLA4, structure 9, Fc S239D, I332E) chain 1: EVQLVESGGGLIQPGGSLRLSCAVSGFTVSKNYMSWVRQAPGKGLEWVSVVYSGGSKTYADSVKGRFTISRDNSKNTLYLQMNSLRAEDTAVYYCARAVPHSPSSFDIWGQGTMVTVSSKLEPKSSDKTHTPPPPPRTDIQMTQSPSTLSASVGDRVTVTCRASQSIYIWLAWYQQKPGKAPNLLIYKASSLETGVPSRFSGSGSGTEFTLTISSLQPDDFATYYCQQYYGSSRTFGQGTKVEIKRTVAAPSVFIFPPSDEQLKSGTASVVCLLNNFYPREAKVQWKVDNALQSGNSQESVTEQDSKDSTYSLSSTLTLSKADYEKHKVYACEVTHQGLSSPVTKSFNRGEC chain 2: not shown |  |  |  |  |  | 4.65 | 401 | 1.94 | 5660 | 2.97 | 100 | 1.69 | 81.4

The remaining lines, values ahead:

Kdis fold [1] | Maximum MFI (human BCMA) | Response [2] | koff [2] [s⁻¹] | EC50 (human BCMA) [nM] | EC50 [3] [nM] | Maximum MFI [3] [MFI] | EC50 [4] [nM] | Maximum MFI [4] [MFI] | IC50 [5] [nM] | Maximum inhibition rate (%) [5] [%] | IC50 [6] [nM] | Maximum inhibition rate (%) [6] [%] | Binder
0.29 | 1440 | 0.578 | 0.000201 | 1.72 |  |  |  |  |  |  |  |  | PR004567, PR001046 VH-derived single-domain variant 1046-R2-5E1 (VHH, Tested as VH single domain with Flag and His tags; not shown: Flag and His tags) VHH: EVQLVETGGGLIQPGGSLRLSCAASGFTVSDSYMTWVRQAPGKGLEWVSVIFSGGKTYVADSVKGRFTISRDNAKNTLYLQMNSLRAEDTALYYCARRNYDQTRGTDVFDIWGQGTMVTVSS
0.31 | 1560 | 0.535 | 0.000217 | 1.24 |  |  |  |  |  |  |  |  | PR004562, PR001046 VH-derived single-domain variant 1046-R2-10H5 (VHH, Tested as VH single domain with Flag and His tags; not shown: Flag and His tags) VHH: EVQLVETGGGLIQPGGSLRLSCAASGFTVSDSYMTWVRQAPGKGLEWVSVIFSGGKTYYSDSVKGRFTISRDNAKNTLYLQMNSLRAEDTALYYCARRNYDQTLGTDVFDIWGQGTMVTVSS
0.34 | 1430 | 0.557 | 0.000236 | 2.42 |  |  |  |  |  |  |  |  | PR004565, PR001046 VH-derived single-domain variant 1046-R2-2G4 (VHH, Tested as VH single domain with Flag and His tags; not shown: Flag and His tags) VHH: EVQLVETGGGLIQPGGSLRLSCAASGFTVSDAYMTWVRQAPGKGLEWVSVIFSGGNTYVSDSVKGRFTISRDNAKNTLYLQMNSLRAEDTALYYCARRNYDQTIGTDVFDIWGQGTMVTVSS
0.33 | 1530 | 0.57 | 0.000228 | 1.34 |  |  |  |  |  |  |  |  | PR004564, PR001046 VH-derived single-domain variant 1046-R2-2D4 (VHH, Tested as VH single domain with Flag and His tags; not shown: Flag and His tags) VHH: EVQLVETGGGLIQPGGSLRLSCAASGFTVSDSYMTWVRQAPGKGLEWVSVIFSGGRTYYSDSVKGRFTISRDNAKNTLYLQMNSLRAEDTALYYCARRNYDQTLGTDVFDIWGQGTMVTVSS
0.41 | 1230 | 0.268 | 0.000282 | 1.72 |  |  |  |  |  |  |  |  | PR004573, PR001046 VH-derived single-domain variant 1046-R2-8B1 (VHH, Tested as VH single domain with Flag and His tags; not shown: Flag and His tags) VHH: EVQLVETGGGLIQPGGSLRLSCAASGFTVSDSYMTWVRQAPGKGLEWVSVIFSGGKTYYADSVKGRFTISRDNAKNTLYLQMNSLRAEDTALYYCARRNYDDTRGTDVFDIWGQGTMVTVSS
0.33 | 1440 | 0.733 | 0.00023 | 2.85 |  |  |  |  |  |  |  |  | PR004568, PR001046 VH-derived single-domain variant 1046-R2-5H1 (VHH, Tested as VH single domain with Flag and His tags; not shown: Flag and His tags) VHH: EVQLVETGGGLIQPGGSLRLSCAASGFTVSDAYMTWVRQAPGKGLEWVSVIFSGGRTYVADSVKGRFTISRDNAKNTLYLQMNSLRAEDTALYYCARRNYDDTRGTDVFDIWGQGTMVTVSS
0.31 | 1380 | 0.704 | 0.000219 | 2.86 |  |  |  |  |  |  |  |  | PR004571, PR001046 VH-derived single-domain variant 1046-R2-6F1 (VHH, Tested as VH single domain with Flag and His tags; not shown: Flag and His tags) VHH: EVQLVETGGGLIQPGGSLRLSCAASGFTVSDSYMTWVRQAPGKGLEWVSVIFSGGKTYYSDSVKGRFTISRDNAKNTLYLQMNSLRAEDTALYYCARRNYDQTIGTDVFDIWGQGTMVTVSS
0.34 | 1360 | 0.437 | 0.000234 | 2.15 |  |  |  |  |  |  |  |  | PR004570, PR001046 VH-derived single-domain variant 1046-R2-6D6 (VHH, Tested as VH single domain with Flag and His tags; not shown: Flag and His tags) VHH: EVQLVETGGGLIQPGGSLRLSCAASGFTVSDAYMTWVRQAPGKGLEWVSVIFSGGRTYYADSVKGRFTISRDNAKNTLYLQMNSLRAEDTALYYCARRNYDQTRGTDVFDIWGQGTMVTVSS
0.34 | 1500 | 0.29 | 0.000236 | 0.54 |  |  |  |  |  |  |  |  | PR004572, PR001046 VH-derived single-domain variant 1046-R2-7E7 (VHH, Tested as VH single domain with Flag and His tags; also called PR001046-R2-7E7; not shown: Flag and His tags) VHH: EVQLVETGGGLIQPGGSLRLSCAASGFTVSDSYMTWVRQAPGKGLEWVSVIFSGGKTYVADSVKGRFTISRDNAKNTLYLQMNSLRAEDTALYYCARRNYDDTRGTDVFDIWGQGTMVTVSS

Source: patent US20230322953A1 (HARBOUR BIOMED SHANGHAI, published 2023)
